{"source": "patent US20140378374A1", "about": "“METHODS OF TREATMENT” (GlaxoSmithKline Intellectual Property (No.2) Limited, priority 2013, published 2014)", "assay": "Phase 1 single-dose (30 mg subcutaneous) pharmacokinetics and safety study in T2DM with normal or varying degrees of renal impairment", "format": "in vivo, human", "details": "for AUC Ratio / Cmax Ratio: single 30 mg dose", "protocol": "A Phase 1, open-label, nonrandomized study evaluated the pharmacokinetics of a single 30 mg subcutaneous dose of albiglutide in subjects with T2DM and normal or varying degrees of renal impairment. Eligible subjects were men and women from 30 to 75 years of age (inclusive) with T2DM and HbA1c between ≧6.0% and ≦10.5%. […] Participants on hemodialysis were on stable treatment for at least 3 months before screening and had serum albumin ≧[…] and hemoglobin ≧8 g/dL.\nVenous blood samples for determination of albiglutide were drawn on Day 1 prior to dosing and 6 hours after dosing and on Days 2, 3, 5, 10, 14, 21, 29, and 42 after administration of albiglutide (30 mg subcutaneous). In subjects undergoing hemodialysis, Day 1 was planned to be the day before a scheduled hemodialysis day (Day 2). Following blood sampling on Day 1 (before dosing and 6 hours after dosing) blood samples were taken before and after each dialysis procedure over the next 7 weeks. For all subjects, each blood sample was about 3 mL and drawn into an EDTA collection tube, immediately placed on crushed ice and water, and centrifuged for 10 minutes at 1,500 g at 4° C. Approximately 1 mL of plasma was transferred to a sterile 1.8-mL tube (Nunc® CryoTube®, Sigma-Aldrich) and stored at −70° C. until assaying.\nAlbiglutide PK samples collected in participants undergoing hemodialysis also were analyzed to assess predialysis and postdialysis changes in albumin concentrations.\nPlasma samples were analyzed for albiglutide by using a validated enzyme-linked immunosorbent assay (ELISA) and were diluted 100-fold with sample buffer before analysis. Albiglutide was captured using a rabbit anti-human GLP-1 (7-36) amide and detected using a rabbit anti-HSA conjugated to biotin. ELISA experiments were performed using the Furoninc® 96 well plate (Nunc, cat. #437796) with the following steps. 1) […], antibody coating solution of 5.0 μg/mL anti-GLP-1 (7-36) Amide (human) IgG (Peninsula Laboratories, cat. # T-4111) in 50 mM sodium carbonate-bicarbonate buffer pH 9.4 was added to each well, sealed with aseptic sealing tape and incubated for 24 hours (±12 hours) at nominally 4° C. The microtiter plate was washed 5 times with […] wash buffer (10 mM Sodium Phosphate, 150 mM NaCl, 0.05% Tween 20, pH 7.5) using plate washer; 2) […] blocking buffer of SuperBlock in PBS (SuperBlock (Pierce, cat. #37515) in PBS, 5.0% Rabbit Plasma) was added to each well, sealed and incubated with constant shaking for approximately 1.5 hour (±30 minutes) at ambient room temperature and the microtiter plate washed; 3) 100 mL of either standards, quality controls (QCs) or samples were added per well, sealed, incubated and washed; 4) 100 mL of Detection Antibody solution of Biotin Labelled Rabbit polyclonal to Human Serum Albumin (NOVUS Biologicals, cat. # NB 100-1674) was added per well, sealed, incubated and washed; 5) 100 mL of Reporter Tag solution (Streptavidin-HRPO Conjugate, Caltag, cat. # SA1007) was added per well, sealed, incubated and washed; 6) 100 mL of Development Substrate Pico (SuperSignal ELISA, Pierce, cat. #37070) was added, incubated and the plate read using plate reader (Wallac 1420 Victor Multilabel Counter, Perkin Elmer Life Sciences, Boston, Mass.). Sample concentrations were determined by interpolation from the standard curve, which was fitted using a weighted (1/x), 4-parameter logistic equation. The validated range of this assay (based on 10 μL of human plasma) is 50 ng/mL to 1,500 ng/mL.\nDuring the single dose study and 3 of the phase 3 trials (Harmony 2, 4 and 5), the assay process was modified from manual pipetting of samples to robotic pipetting.\nPharmacokinetic calculations were based on actual sampling collection times. All statistical analyses of pharmacokinetic parameters were performed using SAS Version 9.1 or later (SAS Institute, Inc., Cary, N.C.). […]"}
{"substance": "Albiglutide: recombinant fusion protein of 2 copies of modified human GLP-1 (fragment 7-36(A8G)) genetically fused in series to recombinant human serum albumin", "values": [{"measurement": "Any event", "setting": "Hemodialysis (n = 10)", "value": "8 (80) n (%)"}, {"measurement": "Dizziness", "setting": "Hemodialysis (n = 10)", "value": "2 (20) n (%)"}, {"measurement": "Fatigue", "setting": "Hemodialysis (n = 10)", "value": "2 (20) n (%)"}, {"measurement": "Headache", "setting": "Hemodialysis (n = 10)", "value": "3 (30) n (%)"}, {"measurement": "Hypoglycemia, Documented Symptomatic", "setting": "Hemodialysis (n = 10)", "value": "1 (10) n (%)"}, {"measurement": "Nausea", "setting": "Hemodialysis (n = 10)", "value": "5 (50) n (%)"}, {"measurement": "Total no. of events", "setting": "Hemodialysis (n = 10)", "value": 38, "unit": "n"}, {"measurement": "Vomiting", "setting": "Hemodialysis (n = 10)", "value": "5 (50) n (%)"}, {"measurement": "AUC Ratio", "setting": "Hemodialysis:Normal", "value": 0.99}, {"measurement": "Cmax Ratio", "setting": "Hemodialysis:Normal", "value": 1.11}, {"measurement": "AUC Ratio", "setting": "Hemodialysis:Normal, listed as albiglutide", "value": "0.99 (0.63, 1.57)"}, {"measurement": "Any event", "setting": "Moderate (n = 11)", "value": "3 (27.3) n (%)"}, {"measurement": "Dizziness", "setting": "Moderate (n = 11)", "value": "0 n (%)"}, {"measurement": "Fatigue", "setting": "Moderate (n = 11)", "value": "0 n (%)"}, {"measurement": "Headache", "setting": "Moderate (n = 11)", "value": "0 n (%)"}, {"measurement": "Hypoglycemia, Documented Symptomatic", "setting": "Moderate (n = 11)", "value": "0 n (%)"}, {"measurement": "Nausea", "setting": "Moderate (n = 11)", "value": "0 n (%)"}, {"measurement": "Total no. of events", "setting": "Moderate (n = 11)", "value": 4, "unit": "n"}, {"measurement": "Vomiting", "setting": "Moderate (n = 11)", "value": "0 n (%)"}, {"measurement": "AUC Ratio", "setting": "Moderate:Normal", "value": 1.32}, {"measurement": "Cmax Ratio", "setting": "Moderate:Normal", "value": 1.21}, {"measurement": "AUC Ratio", "setting": "Moderate:Normal, listed as albiglutide", "value": "1.32 (0.96, 1.80)"}, {"measurement": "Any event", "setting": "Normal (n = 10)", "value": "8 (80) n (%)"}, {"measurement": "Dizziness", "setting": "Normal (n = 10)", "value": "0 n (%)"}, {"measurement": "Fatigue", "setting": "Normal (n = 10)", "value": "0 n (%)"}, {"measurement": "Headache", "setting": "Normal (n = 10)", "value": "0 n (%)"}, {"measurement": "Hypoglycemia, Documented Symptomatic", "setting": "Normal (n = 10)", "value": "0 n (%)"}, {"measurement": "Nausea", "setting": "Normal (n = 10)", "value": "0 n (%)"}, {"measurement": "Total no. of events", "setting": "Normal (n = 10)", "value": 8, "unit": "n"}, {"measurement": "Vomiting", "setting": "Normal (n = 10)", "value": "0 n (%)"}, {"measurement": "Any event", "setting": "Severe (n = 10)", "value": "4 (40) n (%)"}, {"measurement": "Dizziness", "setting": "Severe (n = 10)", "value": "0 n (%)"}, {"measurement": "Fatigue", "setting": "Severe (n = 10)", "value": "0 n (%)"}, {"measurement": "Headache", "setting": "Severe (n = 10)", "value": "1 (10) n (%)"}, {"measurement": "Hypoglycemia, Documented Symptomatic", "setting": "Severe (n = 10)", "value": "2 (20) n (%)"}, {"measurement": "Nausea", "setting": "Severe (n = 10)", "value": "0 n (%)"}, {"measurement": "Total no. of events", "setting": "Severe (n = 10)", "value": 8, "unit": "n"}, {"measurement": "Vomiting", "setting": "Severe (n = 10)", "value": "0 n (%)"}, {"measurement": "AUC Ratio", "setting": "Severe:Normal", "value": 1.39}, {"measurement": "Cmax Ratio", "setting": "Severe:Normal", "value": 1.23}, {"measurement": "AUC Ratio", "setting": "Severe:Normal, listed as albiglutide", "value": "1.39 (1.03, 1.89)"}, {"measurement": "subjects with a hypoglycemic SAE", "setting": "hemodialysis group, insulin-treated subject", "value": "One"}, {"measurement": "half-life, geometric mean", "setting": "participants with impaired renal function", "value": "141 to 145", "unit": "h"}, {"measurement": "half-life, geometric mean", "setting": "participants with normal renal function", "value": 122, "unit": "h"}, {"measurement": "observed increase in AUC", "setting": "patients with severe renal impairment", "value": "30 to 40", "unit": "%"}, {"measurement": "median time of peak concentrations (Tmax)", "setting": "regardless of the level of renal impairment", "value": "88 to 96", "unit": "h"}]}
